These results are taken from patent publication US20100120894A1 (UNIVERSITY OF MASSACHUSETTS, published 2010).

Experiment [1] deals with T1, ASC-YFP stably expressed in HEK293 cells (UniProt Q9ULZ3 1-195).
T1 construct: also called YFP-ASC; HEK293-ASC-YFP; not shown: YFP
Nature of the experiment: confocal microscopy, HEK293-ASC-YFP cells transfected with PYD-CFP. The method, then: Fluorescence intensities of the green (YFP-ASC) and red (PYD-CFP) channels were quantified along selected lines (white lines) and the percentage of ASC-YFP speckles per transfected cells assessed (panel b). c) 293T cells were transfected with expression plasmids encoding HAtagged ASC and CFP-tagged constructs as in panel a. The protein levels of the CFP-tagged PYD proteins in cell lysates were assessed by immunoblot analysis (INPUT, upper panels). Cell extracts were immunoprecipitated (IP) with anti-HA antibodies and immunoblotted (WB) with anti-HA antibody and anti-CFP antibody (lower panel). d) ASC was immunoprecipitated from THP-1 cell lysates primed with Sendai virus, whereas beads without anti-ASC antibody served as a negative control. The presence of ASC, PYHIN-2 and AIM2 was assessed by immunoblot analysis in the cell lysate and the ASC immunoprecipitation. The band above the AIM2 band in the ASC immunoprecipitation corresponds to the heavy chain of the anti-ASC antibody that is also detected by the secondary antibody. E) 293T cells were transfected with a multimerized NF-″B luciferase reporter construct together with fixed amounts of constructs as in (a) alone or together with increasing amounts of ASC. Cellular NF-″B activation was quantified in cell lysates 24 hours after transfection. Data of one representative experiment out of three (panels a, b, c and d) or two (panel e) are depicted.
To study the possibility that these PYHIN proteins associated with ASC in the cytosol, C-terminally tagged CFP PYD-domain fusions were generated. Of note, the putative nuclear localization sequences were predicted to localize to the […] of these molecules. Consistent with these predictions, all of the PYD-CFP fusion proteins were localized in the cytoplasm and formed large cytosolic aggregates in a portion of the cells (FIG. 6).

Experiment [2] deals with HA-tagged ASC (human, UniProt Q9ULZ3 1-195, limits assumed). The experiment in a line: cell-based or functional assay.
Chain of HA-tagged ASC (Q9ULZ3 whole entry): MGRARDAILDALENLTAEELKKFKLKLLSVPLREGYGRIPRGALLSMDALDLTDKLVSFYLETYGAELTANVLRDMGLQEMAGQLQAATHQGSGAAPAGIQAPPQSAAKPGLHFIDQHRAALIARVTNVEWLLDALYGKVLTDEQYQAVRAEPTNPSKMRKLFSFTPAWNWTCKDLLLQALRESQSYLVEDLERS

T1 sequence (Q9ULZ3 whole entry): as above

B1: PYHIN3-PYD (1-84) C-terminally tagged with CFP (other, human, UniProt P41218 1-84, looked up)
chain: MVNEYKKILLLKGFELMDDYHFTSIKSLLAYDLGLTTKMQEEYNRIKITDLMEKKFQGVACLDKLIELAKDMPSLKNLVNNLRK
notes: range 1-84; also called MNDA PYD; not shown: C-terminal CFP from vector pEFBOS-C-term-CFP
As for B1, the binding result in experiment [1] is recorded as “no binding”.

B2: PYHIN2-PYD (1-84) C-terminally tagged with CFP (other, human, UniProt Q16666 1-84, looked up)
chain: MGKKYKNIVLLKGLEVINDYHFRMVKSLLSNDLKLNLKMREEYDKIQIADLMEEKFRGDAGLGKLIKIFEDIPTLEDLAETLKK
notes: range 1-84; also called IFI16 PYD; not shown: C-terminal CFP from vector pEFBOS-C-term-CFP
Take B2: in experiment [1], the binding result was “no binding”.

B3: Full length human AIM2 (AS 1-356) C-terminally tagged with CFP (other, UniProt O14862 1-343, looked up, not shown: large carriers)
chain: MESKYKEILLLTGLDNITDEELDRFKFFLSDEFNIATGKLHTANRIQVATLMIQNAGAVSAVMKTIRIFQKLNYMLLAKRLQEEKEKVDKQYKSVTKPKPLSQAEMSPAASAAIRNDVAKQRAAPKVSPHVKPEQKQMVAQQESIREGFQKRCLPVMVLKAKKPFTFETQEGKQEMFHATVATEKEFFFVKVFNTLLKDKFIPKRIIIIARYYRHSGFLEVNSASRVLDAESDQKVNVPLNIIRKAGETPKINTLQTQPLGTIVNGLFVVQKVTEKKKNILFDLSDNTGKMEVLGVRNEDTMKCKEGDKVRLTFFTLSKNGEKLQLTSGVHSTIKVIKAKKKT
Regarding B3, the “NF-kappaB luciferase reporter activation in 293T cells” value in experiment [2] is ≤ 60 fold.

B4: PYHIN1-PYD (1-84) C-terminally tagged with CFP (other, human, UniProt Q6K0P9 1-84, looked up)
chain: MANNYKKIVLLKGLEVINDYHFRIVKSLLSNDLKLNPKMKEEYDKIQIADLMEEKFPGDAGLGKLIEFFKEIPTLGDLAETLKR
notes: range 1-84; also called IFIX PYD; not shown: C-terminal CFP from vector pEFBOS-C-term-CFP
For the molecule B4, the binding result in experiment [1] is on record as “no binding”.
